Assay: soluble on expression in E. coli; label from the status in PepcDB or PDB records

Sequence	soluble on expression in E. coli
MSLSEIVVSKFGGTSVADFDAMNRSADIVLSDANVRLVVLSASAGITNLLVALAEGLEPCERFEKLDAIRNIQFAILERLRYPNVIREEIERLLENITVLAEAAALATSPALTDELVSHGELMSTLLFVEILRERDVQAQWFDVRKVMRTNDRFGRAEPDIAALAELAALQLLPRLNEGLVITQGFIGSENKGRTTTLGRGGSDYTAALLAEALHASRVDIWTDVPGIYTTDPRVVSAAKRIDEIAFAEAAEMATFGAKVLHPATLLPAVRSDIPVFVGSSKDPRAGGTLVCNKTENPPLFRALALRRNQTLLTLHSLNMLHSRGFLAEVFGILARHNISVDLITTSEVSVALTLDTTGSTSTGDTLLTQSLLMELSALCRVEVEEGLALVALIGNDLSKACAVGKEVFGVLEPFNIRMICYGASSHNLCFLVPGEDAEQVVQKLHSNLFEEGHHHHHH	soluble
MEQSQRTQLSYEGAKSVIRFMSIEKRIQIHCRIPYYRKTNALFPYAHRQMTLSSDGISIGSNHYTFDIRRSNFGRRFRDDFGGESDEEPEAAPLEPALAELNLRDRARREREILREEHYQREDDERLRAQQNQVHIRYGETQYEVRRNFGQRRNPEEAFIKLFDAYISTGTTIEKLLFTGFPKFLKKRDPSKLQFKVRELKLSSLRDRTLEKIVPFIGASKLKKMNLDVGPDTISYLDLPMIKNCEVLNLNISMWNERNRQRNENNNFSKLSNLRNMKLNLILERFTIDDLQRLALNWIFTRRPIGTYFKTGVNQQYDHILDIFDRLIEENRASRCRITKLGTVYFANGVKLSIDGKSELVVYGGPKWKTRAGIDGQWTIHMEVMAVGDTTPSA	not soluble
MSLSASPELADKKGIRACPFDEPKASDEINTGFMKIFTGGDTITARALYKEPIYFKPQFKPFLLCNELPTIKSDDDGTWRRLKVIPFLSKFIKHSEATKKMKKEGLPKNHFWADTSLSEKLPDWKQGFMCLLLKYFRKYRKHGLIHPKLVTQHTVEYRKKCDVFQDFIGDYLVRVDNTKKGISVMDLYQNMREWYKSNYTGKCPNAKDLRNYVQHRMPTYNKNAEGHHHHHH	not soluble
MADKRIRSDSSAAAVQAMKNAAVDTIDPPSHAGLEKKAEPFWHDNIRSKALDSWTPADLLAAVELANNQLYITVLRKDLRKEERIRGEERDEGLIKDLRKQIVELQRTILAQRRDLQIHSHATNGESRDQKKRNQNDRDARNTKNEHQDQDDNLIAFPKHG	not soluble
MSSIVEHVVLFKLNDDDVDSGKINSMVNGINELVNLDQVLHLYCGSIHRLITTTASDFTHVLHSRYRSKEDLNAYAIHPDHVRVVKESESIREDIMAVDWIAEQAPE	not soluble
MSGLIPAHGLSFRVDASTLTGQSSLLRASLGLDDVHLQVSAITEVKSVFVADAFDRGLVTVTADKEIAIWFPPNSATEQELFVRTLSAAMNGDGPIPQPVPHLDFVAVDVETTNSDWGSICQIGAAKVRDGHVVETKEWLCTPPGDLNSFDEANIAIHGITADMVATAPSFAECYDQFADFAGDLPLAAHNAQFDMTAFLRATQAADIRLRTTNFGCSLAAARAAHLPIANHKLPTVSQHLHVELRNHHNACADAEACAGILIALTQRLNTEITDFTSAFNMLGFHTGQLSDARVYPVLKVRGASSTPASPDSAAPAIQTPPAEKPRKATKAARAPWSKVATPETIPDPNPDADPQGRLFGQSVTLSGDFAPYDKGELWAGIANQGGIIGKNVTKKTTILVCGPWDKPTSKQKRAEELRAKGQEIDLWTQEDLFAQLGLNPEDEQPPF	not soluble
MSLSERIIVTYQVAAAPAEIAARAEALAIEQSVECPLAAVTEQQIRDEIVGRVEAIAPIGETRFSVRVSLASATAPAEPGQLLNMLFGNSSIQPDVTLADVELPPAYPAAFGGPKLGISGLRAKLGAPRRALTGSALKPQGLAPEALAGLAHRLALGGVDLIKDDHGIADQAFSPFAARVPAVARAMREACAVRGAAMLYAPHVSGSLDDMRRQLDIVRREGLSVVMLMPMIVGLANFHLIAKEAEGLIVLAHPSLAGAQRIAPDLLLGKLFRLLGADATIFPHYGGRFAYTPETCRALADAARRDWHDLKPCLPVPAGGIAIDRIKELLAFYGTDVMLLIGGSLLAAGEQLTEHAARFTAEVASHGQEGHHHHHH	soluble
SLNAEEKKGLQRAIEEITEIAKGFGLDFYPMRYEICPAEIIYTFGAYGMPTRFSHWSFGKQFHKMKLHYDLGLSKIYELVINSDPCYAFLLDSNSLIQNKLIVAHVLAHCDFFKNNCRFQNTKRDMVESMAATAERIKHYEQVHGIKEVESFLDAILSIQEHIDPSLVRPKLQWSVDDEEEEIEEAATPYDDLWSLDEKKPKKQVKKSKKPFPPRPEKDILLFIEEHSRELEPWQRDILTMMREEMLYFWPQLETKIMNEGWASYWHQRIIRELDLTSDEAIEFAKLNAGVVQPSKTGINPYYLGLKIFEDIEKRYNNPTEEMKKMGVQPDSGREKMFEVREIESDISFIRNYLTKELVMREDLYLFAAAGRDYKIIDKQWKSVRDQLVSMRVNGGFPYLTVNDGDYMKNNELYIKHWYEGIELDLKYLEKVLPYLFQLWGRSVHIESVLEDKEVMFSYDGKGVHRRYL	soluble
MIGKLKKGSSFGGCIRYVTGKDEAKIIASDGVLLGTNAEITQSFELQRQLNPRIKKPVGHIALSFKPEDKPRLTDEFMTKIAIEYMQMMGITKTQFIIIRHHNADNPHCHIVYNRINNESKLISDRNDYRRNEQVTKALKSKYGLTYGTDKSNTNTRKLRNAERAKYEIHNAVKDALKMADSWEKLRSELAKRGVHLEFVYKDKAQTKVQGIRFCKDGYSFKGTQICREYSFGKLNAKFEGTENHVSTRANSAQQYEQGCRKNEQVPFMSENCQDPWDGISSIGLFASANAQTFESFPEDESAKKKKKKRRRGFSL	not soluble
MSLMLKKNDIIQVAISDLSHEGAGVAKHDGFVFFVDNALPEEVIDMRVLKVNKNSGFGKVEAYHYLSSARNADVNLTYLRTGIADLGHLTYEDQLTFKKKQVQDSLYKIAGISDVTVESTIGMTEPLAYRNKAQVPVRRVNGQLETGFFRKHSHDLIPISDYYIQDKEIDRLINFTRDLLRRFDIKPYDETEQTGLLRNIVVRRGHYSGEMMLVLVTTRPKVFRVDQVIEKIVEAFPAVVSIIQNINDKNTNAIFGKDFKTLYGKDTITDSMLGNNYAISAQSFYQVNTVMAEKLYQTAIAFSDLSKDDIVIDAYSGIGTIGLSFAKTVKAVYGVEVIEAAVRDAQQNAALNGITNAYFVADTAEHAMATWAKDGIKPSVILVDPPRKGLTESFIQASVAMGPQKITYVSCNPATMARDIKRYQELGYKLAKVQPVDLFPQTHHVECVVLLIKEEGHHHHHH	soluble
MNEALDDIDRILVRELAADGRATLSELATRAGLSVSAVQSRVRRLESRGVVQGYSARINPEAVGHLLSAFVAITPLDPSQPDDAPARLEHIEEVESCYSVAGEESYVLLVRVASARALEDLLQRIRTTANVRTRSTIILNTFYSDRQHIP	soluble
MSLQHACIFLELLKITYIHCMKRLLSLYLVLSGFLLHAQTVKELKTVASSFSEMAKIPAGSFLKHEYSFLNIQPTKQDTNLLFCIHPEATITKVTTSFYISTHEVTNAEYRQFIVWVTDSLIKNNITFDTVFYRYTTPSGKSTRISIVPDTMNRVLRDMFGYCNLNYYTHKEFISFPTTNISWHQAQAYIHWLNNRMLELLKKNHVPTTDWGKYRLPEALEWEYAAMIVEKNGDWFNQRNPDAYNIYGWLDYPLTTKEGLYKANFGLIRDLNHMVIKARWDDNYDALAPVKKYVPSLMGLYDLSGNVSEWTNTSISLDSLNKFYAGYYSNLLQTKYQHLFEELLKPAPDWKKFDAFKAESVRGRYDAQAQQYWFNEYVIRVKEMENYNRSILSRISDGMLVKGGSWDNPPVYMINTCSQVLSKNFTTPQTGFRVALTLEPAFEKLLGSYLTGEGHHHHHH	not soluble
MDYTNNQLHVIYGDASLGLEGPNFHYLFSYERGGLESLVVNQKEWLYRTPTPLFWRATTDNDHGNGFDVKAAQWYAADRFTTCQKIDLTVDGQLVQPLPIAPLNNRYTNHEMANQVALTYHFVTPTVPSTSVSITYTVASDGNIKIMTHFAGREGLPELPAFGLRFIMPTTATGFDYQGLSGETYPDRLAGATQGQFHVDGLPVTPYLVPQECGMHMQTSQLTVTRSTTQNNADQSKQPFSLTFSQADQPFAFSCLPYTAAELEQATHLEELPLPRRTVLSIYGAVRGVGGIDSWGADVEAKYHIPANQDLDFSFNIHFLEHHHHHH	not soluble
MGSDKIHHHHHHMGYSFVHPTGVTLYNPEKAFNGYTLMSIRELGAGLIDMNGNVVRLWKDLHGFPNKLLPGGYVIGSLGIRDPAYGYQDQTDLVQVDWEGNVVWKFNRLEYIEDPDNKPQWMVRQHHDYQRDGNPVGYYIPGMECRTDGGNTLILCHENLFNTKISEKRLLDDCFIEVDWEGNILWSWRASDHFEEMNFSDAAKNAMYRNPNMLENGGGMGDWLHINSMSYLGPNQWYDAGDERFHPENIIWDGREANISAIIDKKSGVIVWQMGPDFSATKELRRIGQIIGQHHVHMIPKGLPGAGNILIFDNGSWGGYGTPSNVSKDGIKADHADRSRVIELNPVTMEVVWQLTASELGYKPAGIFDYRFYSPLTSSAQRLPNGNTLITEGTGFRVFEVTADHEVVWEFWSPFTNAVAPTVYRTYRYPYSYVPHLAKPQETPIPRLDIKTFRVPGAAAGQLANQIKVAGTTGYGDKQELCVSFGEEL	not soluble
MNFGESYCSFHCSWCQPLLDSLSKESCWYLNFQSVDESQFYDETYFASPKNKTPRVSGKLKEKLLQFVKTPEDLDRPRKRAIIHICRRIKKITGQDIDPEYISKLLYGLKRARRDKFRKINREIFRGLNWDFTQFEKCTFKCVLN	not soluble
MGSDKIHHHHHHMIYMRLKLSFIYDGDKFQPNKHAVQGFIYNMLRGTEYEDRHNRRGFKFFTFSDVFRDSKGYYSLLIASPDSGFINALYLSLKDRDHVYIGKDEIKLVEVKKFKLKLKRAFQTGSPVVIYKDSRKNEYFKLHEHRDLLFFLQRLKENAEKKFNSFYGDEFHLEGLIFDRVIPKVRKNGKVDVYVKVVKNGVPFPVIGTNWELLEKERIKPEERRFYRFIMDCGLGEKNSLGFGFLNPIKGVKN	not soluble
MHVTLVEINVHEDKVDEFIEVFRQNHLGSVQEEGNLRFDVLQDPEVNSRFYIYEAYKDEDTVAFHKTTPHYKTCVAKLESLMTGPRKKRLFNGLMP	not soluble
MSLSGPRNQILVSITDAPKIHILDPSTEYCVGDYVAYQLNGVAPFMIKYEFNGIPLKSKERSSQFVRLASEPGIISITSLQDSSSQCIVDFTNPKLKSEFDDLSLNIHPIPSVTVSQGNYVTEDIREGDQAEVIFSFEGTPPFSLTYVRTEETDGKHGKRRSQVVETHKVTDIYSHEYKVITSLQGTYEAIEITDAYCFAKNDLFFNNEGHHHHHH	soluble
MSNITIYHNPACGTSRNTLEMIRNSGTEPTIILYLENPPSRDELVKLIADMGISVRALLRKNVEPYEQLGLAEDKFTDDQLIDFMLQHPILINRPIVVTPLGTRLCRPSEVVLDILQDAQKGAFTKEDGEKVVDEAGKRLK	soluble
SLSCRKEQGKFYDHLLRDCISCASICGQHPKQCAYFCENKLR	soluble
MSLAIEKELLDQLLAGRDPSEVFGKDGLLDDLKKALSERILNAELDDHLDVERLEGGPANRRNGSSKKTVLTGTSKMTLTIPRDRAGTFDPKLIARYQRRFPDFDDKIISMYARGMTVREIQGHLEELYGIDVSPDLISAVTDTVLEAVGEWQNRPLELCYPLVFFDAIRVKIRDEGFVRNKAVYVALAVLADGSKEILGLWIEQTEGAKFWLRVMNELKNRGCQDILIAVVDGLKGFPEAITAVFPQTIVQTCIVHLIRHSLEFVSYKDRRTVVPALRAIYRARDAEAGLKALEAFEEGYWGQKYPAIAQSWRRNWEHVVPFFAFPEGVRRIIYTTNAIEALNSKLRRAVRSRGHFPGDEAAMKLLYLVLNNAAEQWKRAPREWVEAKTQFAVIFGERFFNEGHHHHHH	soluble

— the DeepSol protein solubility set
